Laboratory results from the supplement of paper PMC9112550, “Optimization of the antimicrobial peptide Bac7 by deep mutational scanning” (BMC Biology, 2022).

System: Escherichia coli TOP10
Assay: shrunken log2 fold change of peptide-encoding DNA abundance (4.5 h post-induction vs induction); higher = less antimicrobial activity (less host growth inhibition)
Conditions: time post-induction: 4.5 h; library: site-saturation at positions 5, 18, 19, 20
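Also: peptides expressed intracellularly from a pBAD plasmid library in pooled LB shake-flask culture, induced with 0.3% L-arabinose, DNA abundance read by NGS, three biological replicates, DESeq2 with apeglm shrinkage.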

RRIRPRPPRLPRPRPRPSQKPRP
shrunken log2 fold change: 0.188

RRIRRRPPRLPRPRPRPQCKPRP
shrunken log2 fold change: -0.268

RRIRARPPRLPRPRPRPFETPRP
shrunken log2 fold change: 0.0585

RRIRGRPPRLPRPRPRPIFPPRP
shrunken log2 fold change: 0.553

RRIRYRPPRLPRPRPRPCITPRP
shrunken log2 fold change: -0.00269

RRIRKRPPRLPRPRPRPVERPRP
shrunken log2 fold change: 0.204

RRIRGRPPRLPRPRPRPAKQPRP
shrunken log2 fold change: 0.199

RRIRERPPRLPRPRPRPYGCPRP
shrunken log2 fold change: -0.105

RRIRDRPPRLPRPRPRPGKNPRP
shrunken log2 fold change: -0.543

RRIRERPPRLPRPRPRPYPGPRP
shrunken log2 fold change: -0.379

RRIRPRPPRLPRPRPRPIVTPRP
shrunken log2 fold change: -0.164

RRIRRRPPRLPRPRPRPANMPRP
shrunken log2 fold change: -0.0342

RRIRLRPPRLPRPRPRPPICPRP
shrunken log2 fold change: -0.0611

RRIRWRPPRLPRPRPRPQTYPRP
shrunken log2 fold change: -1.17

RRIRSRPPRLPRPRPRPYGHPRP
shrunken log2 fold change: -0.00193

RRIRVRPPRLPRPRPRPEYDPRP
shrunken log2 fold change: -0.0844

RRIRPRPPRLPRPRPRPKPVPRP
shrunken log2 fold change: 0.154

RRIRIRPPRLPRPRPRPSHTPRP
shrunken log2 fold change: -0.595

RRIRRRPPRLPRPRPRPTTTPRP
shrunken log2 fold change: 0.34

RRIRMRPPRLPRPRPRPAQWPRP
shrunken log2 fold change: 0.533

RRIRKRPPRLPRPRPRPNCDPRP
shrunken log2 fold change: 0.142

RRIRCRPPRLPRPRPRPMPYPRP
shrunken log2 fold change: -0.189

RRIRLRPPRLPRPRPRPFMQPRP
shrunken log2 fold change: 0.0179

RRIRIRPPRLPRPRPRPCWTPRP
shrunken log2 fold change: -0.281

RRIRYRPPRLPRPRPRPNTAPRP
shrunken log2 fold change: -0.0149

RRIRERPPRLPRPRPRPLFDPRP
shrunken log2 fold change: -0.581

RRIRDRPPRLPRPRPRPEHLPRP
shrunken log2 fold change: -0.00213

RRIRNRPPRLPRPRPRPHGLPRP
shrunken log2 fold change: -0.257

RRIRSRPPRLPRPRPRPIYTPRP
shrunken log2 fold change: -0.548

RRIRTRPPRLPRPRPRPSLSPRP
shrunken log2 fold change: 0.00222

RRIRIRPPRLPRPRPRPTDRPRP
shrunken log2 fold change: -0.192

RRIRARPPRLPRPRPRPCECPRP
shrunken log2 fold change: 0.633

RRIRSRPPRLPRPRPRPATIPRP
shrunken log2 fold change: 0.115

RRIRHRPPRLPRPRPRPSAAPRP
shrunken log2 fold change: 0.334

RRIRDRPPRLPRPRPRPNWMPRP
shrunken log2 fold change: -0.0161

RRIRWRPPRLPRPRPRPGASPRP
shrunken log2 fold change: 0.793

RRIRRRPPRLPRPRPRPCHQPRP
shrunken log2 fold change: -0.172

RRIRRRPPRLPRPRPRPPDCPRP
shrunken log2 fold change: 0.326

RRIRQRPPRLPRPRPRPRKQPRP
shrunken log2 fold change: 0.505

RRIRRRPPRLPRPRPRPVNHPRP
shrunken log2 fold change: 0.177

RRIRGRPPRLPRPRPRPVSVPRP
shrunken log2 fold change: 0.624

RRIRLRPPRLPRPRPRPEQVPRP
shrunken log2 fold change: -0.117

RRIRHRPPRLPRPRPRPLPFPRP
shrunken log2 fold change: -0.73

RRIRVRPPRLPRPRPRPSKYPRP
shrunken log2 fold change: -0.783

RRIRMRPPRLPRPRPRPAQLPRP
shrunken log2 fold change: 0.101

RRIRLRPPRLPRPRPRPHFDPRP
shrunken log2 fold change: -0.212

RRIRSRPPRLPRPRPRPLPFPRP
shrunken log2 fold change: -0.588

RRIRDRPPRLPRPRPRPARFPRP
shrunken log2 fold change: 0.446

RRIRERPPRLPRPRPRPSYFPRP
shrunken log2 fold change: -0.48

RRIRTRPPRLPRPRPRPGSLPRP
shrunken log2 fold change: -0.0994

RRIRSRPPRLPRPRPRPIVGPRP
shrunken log2 fold change: 0.0247

RRIRLRPPRLPRPRPRPLIVPRP
shrunken log2 fold change: -0.131

RRIRGRPPRLPRPRPRPSTMPRP
shrunken log2 fold change: 0.21

RRIRQRPPRLPRPRPRPEPWPRP
shrunken log2 fold change: 0.153

RRIRNRPPRLPRPRPRPIVYPRP
shrunken log2 fold change: -0.528

RRIRARPPRLPRPRPRPPVVPRP
shrunken log2 fold change: 0.378

RRIRDRPPRLPRPRPRPMILPRP
shrunken log2 fold change: -0.111

RRIRWRPPRLPRPRPRPDGWPRP
shrunken log2 fold change: 1.12

RRIRDRPPRLPRPRPRPEKNPRP
shrunken log2 fold change: 0.489

RRIRQRPPRLPRPRPRPFHNPRP
shrunken log2 fold change: -0.152
